The supplement of paper PMC11246515
± gives the standard deviation of the averaged measurements.

Test: total protein half-life in vivo (active degradation + dilution); higher = more stable protein
[1] = E. coli NCM3722 delta-clpP delta-lon delta-hslV, growth: N-lim chemostat, doubling time 6 h
[2] = E. coli NCM3722 delta-clpP, growth: N-lim chemostat, doubling time 6 h
[3] = E. coli NCM3722 delta-hslV, growth: N-lim chemostat, doubling time 6 h
[4] = E. coli NCM3722 delta-lon, growth: N-lim chemostat, doubling time 6 h
[5] = E. coli NCM3722 delta-smpB, growth: N-lim chemostat, doubling time 6 h
[6] = wild type E. coli NCM3722, growth: C-lim chemostat, doubling time 3 h
[7] = wild type E. coli NCM3722, growth: C-lim chemostat, doubling time 6 h
[8] = wild type E. coli NCM3722, growth: C-lim chemostat, doubling time 12 h
[9] = wild type E. coli NCM3722, growth: N-lim chemostat, doubling time 6 h
[10] = wild type E. coli NCM3722, growth: N-lim chemostat, doubling time 12 h
[11] = wild type E. coli NCM3722, growth: P-lim chemostat, doubling time 6 h
[12] = wild type E. coli NCM3722, growth: P-lim chemostat, doubling time 12 h

Sequence: MASKFQNRLVGTIVLVALGVIVLPGLLDGQKKHYQDEFAAIPLVPKAGDRDEPDMMPAATQALPTQPPEGAAEEVRAGDAAAPSLDPATIAANNTEFEPEPAPVAPPKPKPVEPPKPKVEAPPAPKPEPKPVVEEKAAPTGKAYVVQLGALKNADKVNEIVGKLRGAGYRVYTSPSTPVQGKITRILVGPDASKDKLKGSLGELKQLSGLSGVVMGYTPN
- total protein half-life in vivo [1]: 4.2 ± 0.25 h
- total protein half-life in vivo [2]: 5.15 ± 2.6 h
- total protein half-life in vivo [3]: 3.72 ± 0.18 h
- total protein half-life in vivo [4]: 3.63 ± 0.44 h
- total protein half-life in vivo [5]: 3.52 ± 0.13 h
- total protein half-life in vivo [6]: 2.45 ± 0.036 h
- total protein half-life in vivo [7]: 3.46 ± 0.32 h
- total protein half-life in vivo [8]: 6.92 ± 0.23 h
- total protein half-life in vivo [9]: 3.32 ± 0.14 h
- total protein half-life in vivo [10]: 5.77 ± 1.7 h
- total protein half-life in vivo [11]: 2.83 ± 0.55 h
- total protein half-life in vivo [12]: 5.38 ± 0.026 h

Sequence: MASVSISCPSCSATDGVVRNGKSTAGHQRYLCSHCRKTWQLQFTYTASQPGTHQKIIDMAMNGVGCRATARIMGVGLNTILRHLKNSGRSR [P0CF07]
- total protein half-life in vivo [1]: 2.96 h
- total protein half-life in vivo [12]: 2.5 h

Sequence: MATHERRVVFFDLDGTLHQQDMFGSFLRYLLRRQPLNALLVLPLLPIIAIALLIKGRAARWPMSLLLWGCTFGHSEARLQTLQADFVRWFRDNVTAFPLVQERLTTYLLSSDADIWLITGSPQPLVEAVYFDTPWLPRVNLIASQIQRGYGGWVLTMRCLGHEKVAQLERKIGTPLRLYSGYSDSNQDNPLLYFCQHRWRVTPRGELQQLE [P0AD42]
- total protein half-life in vivo [1]: 3.86 ± 0.9 h
- total protein half-life in vivo [2]: 2.84 h
- total protein half-life in vivo [3]: 2.383 ± 0.018 h
- total protein half-life in vivo [4]: 2.07 h
- total protein half-life in vivo [5]: 2.7 ± 0.1 h
- total protein half-life in vivo [6]: 2.27 h
- total protein half-life in vivo [7]: 3.96 h
- total protein half-life in vivo [8]: 9.2 ± 0.12 h
- total protein half-life in vivo [9]: 2.62 ± 0.42 h
- total protein half-life in vivo [10]: 4.48 ± 0.64 h
- total protein half-life in vivo [11]: 1.82 h
- total protein half-life in vivo [12]: 3.39 h

Sequence: MATHFARGILTEGHLISVRLPSQCHQEARNIPPHRQSRFLASRGLLAELMFMLYGIGELPEIVTLPKGKPVFSDKNLPSFSISYAGNMVGVALTTEGECGLDMELQRATRGFHSPHAPDNHTFSSNESLWISKQNDPNEARAQLITLRRSVLKLTGDVLNDDPRDLQLLPIAGRLKCAHVNHVEALCDAEDVLVWSVAVTPTIEKLSVWELDGKHGWKSLPDIHSRANNPTSRMMRFAQLSTVKAFSPN [P0ADM8]
- total protein half-life in vivo [2]: 4.2 ± 0.51 h
- total protein half-life in vivo [3]: 3.24 ± 1.1 h
- total protein half-life in vivo [4]: 2.271 ± 0.01 h
- total protein half-life in vivo [5]: 2.5 ± 0.27 h
- total protein half-life in vivo [7]: 3.36 ± 0.66 h
- total protein half-life in vivo [8]: 6.92 ± 0.22 h
- total protein half-life in vivo [9]: 2.12 ± 0.18 h
- total protein half-life in vivo [10]: 3.63 ± 0.21 h
- total protein half-life in vivo [11]: 3.22 ± 0.14 h
- total protein half-life in vivo [12]: 5.24 ± 0.93 h

Sequence: MATIHVDGKEYEVNGADNLLEACLSLGLDIPYFCWHPALGSVGACRQCAVKQYQNAEDTRGRLVMSCMTPASDGTFISIDDEEAKQFRESVVEWLMTNHPHDCPVCEEGGNCHLQDMTVMTGHSFRRYRFTKRTHRNQDLGPFISHEMNRCIACYRCVRYYKDYADGTDLGVYGAHDNVYFGRPEDGTLESEFSGNLVEICPTGVFTDKTHSERYNRKWDMQFAPSICQQCSIGCNISPGERYGELRRIENRYNGTVNHYFLCDRGRFGYGYVNLKDRPRQPVQRRGDDFITLNAEQAMQGAADILRQSKKVIGIGSPRASVESNFALRELVGEENFYTGIAHGEQERLQLALKVLREGGIYTPALREIESYDAVLVLGEDVTQTGARVALAVRQAVKGKAREMAAAQKVADWQIAAILNIGQRAKHPLFVTNVDDTRLDDIAAWTYRAPVEDQARLGFAIAHALDNSAPAVDGIEPELQSKIDVIVQALAGAKKPLIISGTNAGSLEVIQAAANVAKALKGRGADVGITMIARSVNSMGLGIMGGGSLEEALTELETGRADAVVVLENDLHRHASAIRVNAALAKAPLVMVVDHQRTAIMENAHLVLSAASFAESDGTVINNEGRAQRFFQVYDPAYYDSKTVMLESWRWLHSLHSTLLSREVDWTQLDHVIDAVVAKIPELAGIKDAAPDATFRIRGQKLAREPHRYSGRTAMRANISVHEPRQPQDIDTMFTFSMEGNNQPTAHRSQVPFAWAPGWNSPQAWNKFQDEVGGKLRFGDPGVRLFETSENGLDYFTSVPARFQPQDGKWRIAPYYHLFGSDELSQRAPVFQSRMPQPYIKLNPADAAKLGVNAGTRVSFSYDGNTVTLPVEIAEGLTAGQVGLPMGMSGIAPVLAGAHLEDLKEAQQ
- total protein half-life in vivo [1]: 6.02 ± 0.15 h
- total protein half-life in vivo [2]: 5.98 ± 0.38 h
- total protein half-life in vivo [3]: 6.1 ± 0.34 h
- total protein half-life in vivo [4]: 5.92 ± 0.37 h
- total protein half-life in vivo [5]: 5.61 ± 0.29 h
- total protein half-life in vivo [6]: 3.14 ± 0.12 h
- total protein half-life in vivo [7]: 5.723 ± 0.011 h
- total protein half-life in vivo [8]: 10.3 ± 0.23 h
- total protein half-life in vivo [9]: 5.63 ± 0.15 h
- total protein half-life in vivo [10]: 11 ± 0.17 h
- total protein half-life in vivo [11]: 5.72 ± 0.076 h
- total protein half-life in vivo [12]: 10.25 ± 0.082 h

Sequence: MATKLQDGNTPCLAATPSEPRPTVLVFDSGVGGLSVYDEIRHLLPDLHYIYAFDNVAFPYGEKSEAFIVERVVAIVTAVQERYPLALAVVACNTASTVSLPALREKFDFPVVGVVPAIKPAARLTANGIVGLLATRGTVKRSYTHELIARFANECQIEMLGSAEMVELAEAKLHGEDVSLDALKRILRPWLRMKEPPDTVVLGCTHFPLLQEELLQVLPEGTRLVDSGAAIARRTAWLLEHEAPDAKSADANIAFCMAMTPGAEQLLPVLQRYGFETLEKLAVLG
- total protein half-life in vivo [1]: 5.25 ± 0.28 h
- total protein half-life in vivo [2]: 4.4 ± 0.08 h
- total protein half-life in vivo [3]: 4.32 ± 0.48 h
- total protein half-life in vivo [4]: 4.74 ± 0.2 h
- total protein half-life in vivo [5]: 4.44 ± 0.14 h
- total protein half-life in vivo [6]: 3.22 ± 0.32 h
- total protein half-life in vivo [7]: 5.49 ± 0.17 h
- total protein half-life in vivo [9]: 4.54 ± 0.11 h
- total protein half-life in vivo [10]: 7.85 ± 0.034 h
- total protein half-life in vivo [11]: 6.21 ± 0.3 h
- total protein half-life in vivo [12]: 12.2 ± 0.2 h

Sequence: MATLFIADLHLCVEEPAITAGFLRFLAGEARKADALYILGDLFEAWIGDDDPNPLHRKMAAAIKAVSDSGVPCYFIHGNRDFLLGKRFARESGMTLLPEEKVLELYGRRVLIMHGDTLCTDDAGYQAFRAKVHKPWLQTLFLALPLFVRKRIAARMRANSKEANSSKSLAIMDVNQNAVVSAMEKHQVQWLIHGHTHRPAVHELIANQQPAFRVVLGAWHTEGSMVKVTADDVELIHFPF
- total protein half-life in vivo [1]: 5.85 ± 1.3 h
- total protein half-life in vivo [2]: 5.94 ± 0.2 h
- total protein half-life in vivo [3]: 6.87 ± 0.8 h
- total protein half-life in vivo [5]: 5.781 ± 0.025 h
- total protein half-life in vivo [6]: 3.14 ± 0.045 h
- total protein half-life in vivo [8]: 13.1 ± 0.46 h
- total protein half-life in vivo [9]: 6.36 ± 0.95 h
- total protein half-life in vivo [10]: 12.4 ± 0.57 h
- total protein half-life in vivo [11]: 6.49 ± 0.51 h
- total protein half-life in vivo [12]: 12 ± 0.37 h

Sequence: MATLIRLFIHPVKSMRGIGLTHALADVSGLAFDRIFMITEPDGTFITARQFPQMVRFTPSPVHDGLHLTAPDGSSAYVRFADFATQDAPTEVWGTHFTARIAPDAINKWLSGFFSREVQLRWVGPQMTRRVKRHNTVPLSFADGYPYLLANEASLRDLQQRCPASVKMEQFRPNLVVSGASAWEEDRWKVIRIGDVVFDVVKPCSRCIFTTVSPEKGQKHPAGEPLKTLQSFRTAQDNGDVDFGQNLIARNSGVIRVGDEVEILATAPAKIYGAAAADDTANITQQPDANVDIDWQGQAFRGNNQQVLLEQLENQGIRIPYSCRAGICGSCRVQLLEGEVTPLKKSAMGDDGTILCCSCVPKTALKLAR
- total protein half-life in vivo [1]: 5.8 ± 0.31 h
- total protein half-life in vivo [2]: 5.98 ± 1.1 h
- total protein half-life in vivo [3]: 6.18 ± 1.1 h
- total protein half-life in vivo [4]: 5.9 ± 0.56 h
- total protein half-life in vivo [5]: 5.39 ± 0.28 h
- total protein half-life in vivo [6]: 2.97 ± 0.61 h
- total protein half-life in vivo [7]: 6.03 ± 0.76 h
- total protein half-life in vivo [8]: 10.1 ± 0.74 h
- total protein half-life in vivo [9]: 5.69 ± 0.15 h
- total protein half-life in vivo [10]: 10.54 ± 0.032 h
- total protein half-life in vivo [11]: 5.71 ± 0.41 h
- total protein half-life in vivo [12]: 10.2 ± 1.8 h

Sequence: MATLLQLHFAFNGPFGDAMAEQLKPLAESINQEPGFLWKVWTESEKNHEAGGIYLFTDEKSALAYLEKHTARLKNLGVEEVVAKVFDVNEPLSQINQAKLA [P0ACX3]
- total protein half-life in vivo [1]: 5.41 ± 1.1 h
- total protein half-life in vivo [2]: 3.68 ± 0.39 h
- total protein half-life in vivo [3]: 3.94 ± 0.085 h
- total protein half-life in vivo [4]: 5.96 ± 0.17 h
- total protein half-life in vivo [5]: 4.07 ± 0.095 h
- total protein half-life in vivo [6]: 3.22 ± 0.24 h
- total protein half-life in vivo [7]: 4.809 ± 0.035 h
- total protein half-life in vivo [8]: 8.79 ± 2.3 h
- total protein half-life in vivo [9]: 3.27 ± 0.054 h
- total protein half-life in vivo [10]: 5.75 ± 0.85 h
- total protein half-life in vivo [11]: 4.79 ± 0.49 h
- total protein half-life in vivo [12]: 10.1 ± 1.1 h
